Source: publication PMC1450327, “Crystal Structure of the HSV-1 Fc Receptor Bound to Fc Reveals a Mechanism for Antibody Bipolar Bridging” (PLoS Biology, 2006)

Target: T1, wild-type Fc (wtFc), recombinant Fc fragment of human IgG1 (human)
T1 construct: human IgG1 heavy chain constant region, Fc fragment, residues 223-447; also called IgG Fc
Experiment: SPR; BIAcore 2000; wtFc amine-coupled to a CM5 chip (440 RU); CgE injected, three-fold dilutions from 30 μM to 5 nM; pH 8 (50 mM HEPES pH 8.0, 150 mM NaCl, 3 mM EDTA, 0.005% P-20); equilibrium response fitted to a single-site model
Details: both partners purified

B1: C-terminal domain of the gE ectodomain (CgE), HSV-1 gE residues 213-390 (domain or fragment)
chain: APEVSHVRGVTVRMETPEAILFSPGETFSTNVSIHAIAHDDQTYSMDVVWLRFDVPTSCAEMRIYESCLYHPQLPECLSPADAPCAASTWTSRLAVRSYAGCSRTNPPPRCSAEAHMEPVPGLAWQAASVNLEFRDASPQHSGLYLCVVYVNDHIHAWGHITISTAAQYRNAVVEQPL
modifications: secreted from High 5 insect cells; disulfides Cys271-Cys297, Cys280-Cys289 and Cys314-Cys323 (gE numbering = entity position + 211); C-terminal Factor Xa site and 6xHis left out
Kd: ~7 µM
